Experimental data reported in PMC8012715, “Mechanism of NanR gene repression and allosteric induction of bacterial sialic acid metabolism” (Nature Communications, 2021).
pKd: −log10 of the molar value.

What was measured:
[1] = biological target: T1, NanR (Escherichia coli K12) (UniProt P0A8W0); experiment: fluorescence-detected AUC; conditions: 80 nM DNA, EMSA: 10 mM MOPS pH 7.5, 50 mM KCl, 5 mM MgCl2, 10% glycerol, 30 min at room temperature, gel at 4 C, fluorescence AUC: 20 mM Tris-HCl pH 8.0, 150 mM NaCl …
T1 sequence: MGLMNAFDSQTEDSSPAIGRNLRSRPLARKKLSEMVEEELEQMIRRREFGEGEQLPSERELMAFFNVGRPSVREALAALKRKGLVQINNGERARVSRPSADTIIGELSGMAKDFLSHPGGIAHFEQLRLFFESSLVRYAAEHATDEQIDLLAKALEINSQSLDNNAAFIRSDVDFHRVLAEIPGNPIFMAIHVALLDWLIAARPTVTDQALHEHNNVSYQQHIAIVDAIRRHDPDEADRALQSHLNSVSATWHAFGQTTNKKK

[2] = biological target: T1, NanR (Escherichia coli K12); experiment: EMSA; conditions: 10 nM DNA, EMSA: 10 mM MOPS pH 7.5, 50 mM KCl, 5 mM MgCl2, 10% glycerol, 30 min at room temperature, gel at 4 C, fluorescence AUC: 20 mM Tris-HCl pH 8.0, 150 mM NaCl …

Substance: (GGTATA)3-repeat operator, FAM
- pKd ([1]; 20 mM Neu5Ac, Hill n = 2.0 ± 0.6): 6.24
- pKd ([1]; Hill n = 1.9 ± 0.2, no Neu5Ac): 7.70
- pKd ([2]; Hill n = 2.0 ± 0.2, apparent KD): 7.41

Substance: (GGTATA)2-repeat, FAM
- pKd ([2]; Hill n = 2.8 ± 0.3, two complexes): 7.60
